The target of assay [1] is intact ZIKV particles (ZIKV envelope protein) (Zika virus). The assay can be described thus: direct ELISA on coated intact ZIKV particles (10-fold dilutions), antibody 1 ug/ml, anti-mouse IgG-HRP; FPLR fit. (An ELISA detects its analyte on a solid surface through an enzyme-linked reagent.)
Assay [2] shares this target. Kind of assay: direct ELISA on coated intact ZIKV particles (10-fold dilutions), antibody 1 ug/ml, anti-mouse IgG-HRP; LOD = blank + 3 SD.
For assay [3] the target is unchanged. The assay can be described thus: direct ELISA on coated intact ZIKV particles (10-fold dilutions), biotinylated peptide 2 uM, streptavidin-HRP; LOD = blank + 3 SD.
The target is the same in assay [4]. Kind of assay: direct ELISA on coated intact ZIKV particles (10-fold dilutions), biotinylated peptide 2 uM, streptavidin-HRP; FPLR fit.
Assay [5] shares this target. Kind of assay: direct ELISA on coated intact ZIKV particles (10-fold dilutions), biotinylated peptide 20 uM, streptavidin-HRP; LOD = blank + 3 SD.
The target is the same in assay [6]. The assay can be described thus: direct ELISA on coated intact ZIKV particles (10-fold dilutions), biotinylated peptide 20 uM, streptavidin-HRP; FPLR fit.
For assay [7] the target is unchanged. Kind of assay: direct ELISA on coated intact ZIKV particles (10-fold dilutions), biotinylated peptide 5 uM, streptavidin-HRP; FPLR fit.
For assay [8] the target is unchanged. The assay can be described thus: direct ELISA on coated intact ZIKV particles (10-fold dilutions), biotinylated peptide 5 uM, streptavidin-HRP; LOD = blank + 3 SD.
Assay [9] has the same target. The assay can be described thus: direct ELISA on coated intact ZIKV particles (10-fold dilutions), biotinylated peptide 0.5 uM, streptavidin-HRP; FPLR fit.
Assay [10] addresses intact DENV-2 particles (Dengue virus serotype 2). The assay can be described thus: direct ELISA, plates coated with 10^5 copies/mL of intact virus particles.
Assay [11] concerns the target intact DENV-1 particles (Dengue virus serotype 1). The assay is described as above.
Assay [12] has as its target intact DENV-3 particles (Dengue virus serotype 3). The assay is described as above.
The target of assay [13] is intact ZIKV particles (ZIKV envelope protein) (Zika virus). Kind of assay: direct ELISA on coated intact ZIKV particles (10-fold dilutions), biotinylated peptide 0.5 uM, streptavidin-HRP; LOD = blank + 3 SD.
Assay [14] has the same target. Kind of assay: direct ELISA on coated intact ZIKV particles, mono-arm peptide 20 uM in urine (1:1) or serum (1:10); data not shown.

Results on 13 molecules are retold here after patent publication US20190385705A1.

For the molecule antibody 4G2 hybridoma mouse IgG2a, in [1], the FPLR C50 (log[ZIKV], copies/mL) came to 6.2 and the FPLR minimum was 0.04 ΔA. Also, the LOD (log[ZIKV], copies/mL) in [2] is 5.8.

Turning to WPWIGTGPGCCGPGKTDAYS (designed binder, maleimide-PEG2-biotin on the cysteines of the bridge (thioether)) [clamp peptide C4], the LOD (log[ZIKV], copies/mL) in assay [3] is 5.7. In addition, in assay [4], the FPLR C50 (log[ZIKV], copies/mL) amounted to 6.3 and the FPLR minimum is 0.02 ΔA.

On to CKTDAYS (maleimide-PEG2-biotin on the N-terminal cysteine) [mono-arm peptide X2], for which, in [5], the LOD (log[ZIKV], copies/mL) came to 5.8. In [6], the FPLR C50 (log[ZIKV], copies/mL) came to 6.1 and the FPLR minimum was 0.01 ΔA.

For the molecule WPHTQGPGCCGPGSWPGQ (designed binder, maleimide-PEG2-biotin on the cysteines of the bridge (thioether)) [clamp peptide C1], the LOD (log[ZIKV], copies/mL) in assay [3] stood at 4.8. In assay [4], the FPLR C50 (log[ZIKV], copies/mL) worked out at 6.3 and the FPLR minimum was 0.03 ΔA.

Regarding WPHTQGPGCCGPGLRGHA (designed binder, maleimide-PEG2-biotin on the cysteines of the bridge (thioether)) [clamp peptide C2], the LOD (log[ZIKV], copies/mL) in [3] was determined as 4.5. In assay [4], the FPLR C50 (log[ZIKV], copies/mL) was 6.2 and the FPLR minimum was 0.05 ΔA.

In the case of MDSPIKGPGCCGPGKTDAYS (designed binder, maleimide-PEG2-biotin on the cysteines of the bridge (thioether)) [clamp peptide C8], in [7], the FPLR C50 (log[ZIKV], copies/mL) was determined as 6.2 and the FPLR minimum is 0.03 ΔA. In addition, the LOD (log[ZIKV], copies/mL) in assay [8] stood at 4.7.

Regarding WPWIGTGPGCCGPGKRNATP (designed binder, maleimide-PEG2-biotin on the cysteines of the bridge (thioether)) [clamp peptide C3], the FPLR C50 (log[ZIKV], copies/mL) in assay [9] amounted to 5.3. The FPLR minimum in [9] was 0.05 ΔA. The signal decrease against the ZIKV signal in assay [10], in assay [11] and in assay [12] was 70% in each case. Besides, in assay [13], the LOD (log[ZIKV], copies/mL) stood at 3.5.

As for CSWPGQ (maleimide-PEG2-biotin on the N-terminal cysteine) [mono-arm peptide P1], the LOD (log[ZIKV], copies/mL) in assay [5] came out at 6.8.

Turning to CLRGHA (maleimide-PEG2-biotin on the N-terminal cysteine) [mono-arm peptide P2], the lowest ZIKV concentration detected in urine or serum in assay [14] was found to be 1e+06 copies/mL. Further, the LOD (log[ZIKV], copies/mL) in assay [5] was 4.5. In [6], the FPLR C50 (log[ZIKV], copies/mL) stood at 6.2 and the FPLR minimum is 0.04 ΔA.

Regarding AGRRPGPGCCGPGSWPGQ (designed binder, maleimide-PEG2-biotin on the cysteines of the bridge (thioether)) [clamp peptide C5], in [7], the FPLR C50 (log[ZIKV], copies/mL) is 6.4 and the FPLR minimum was 0.01 ΔA. The LOD (log[ZIKV], copies/mL) in assay [8] was 5.8.

On to MDSPIKGPGCCGPGKRNATP (designed binder, maleimide-PEG2-biotin on the cysteines of the bridge (thioether)) [clamp peptide C7], for which, in assay [7], the FPLR C50 (log[ZIKV], copies/mL) stood at 5.8. In addition, the FPLR minimum in assay [7] is 0.01 ΔA. Besides, the LOD (log[ZIKV], copies/mL) in assay [8] was determined as 3.7. Also, the signal decrease against the ZIKV signal in [10], in [11] and in assay [12] was 70% in each case.

For AGRRPGPGCCGPGLRGHA (designed binder, maleimide-PEG2-biotin on the cysteines of the bridge (thioether)) [clamp peptide C6], in assay [9], the FPLR C50 (log[ZIKV], copies/mL) was 5.2 and the FPLR minimum was 0.05 ΔA. This molecule also gave a signal decrease against the ZIKV signal in [10] of 45%. The same molecule showed a signal decrease against the ZIKV signal in assay [12] of 55%. The LOD (log[ZIKV], copies/mL) in [13] came to 3.5.

Regarding CKRNATP (maleimide-PEG2-biotin on the N-terminal cysteine) [mono-arm peptide X1], in [14], the lowest ZIKV concentration detected in urine or serum stood at 1e+07 copies/mL. Moreover, in assay [5], the LOD (log[ZIKV], copies/mL) is 4.8. In [6], the FPLR C50 (log[ZIKV], copies/mL) worked out at 6.1 and the FPLR minimum is 0.03 ΔA.
